Reference: patent US11254745 (CROWN BIOSCIENCE, dated 2022)
Numbering of substitutions follows the chain as printed. Values belong to the binder of their own block, whether it stands above or below them.

What was measured:
[1] = target: T1, human CD4 on 293T cells stably expressing CD4 (CD4-293T) (human, UniProt P01730 26-458); test: FACS, chimeric antibody on CD4-293T cells
T1 construct: whole, on cells; also called 293T-CD4 cells; hCD4 (FACS)
Experimental: (§1) Cell binding analysis of anti-CD4 antibody was performed using 293T cell line stably expressing CD4 (CD4-293T). 2*10^5 CD4-293T cells were added to each well of 96-well plate and incubated with the indicated hybridoma supernatant or a serial concentrations of purified antibody (starting from 20 μg/mL) at 4° C. for 1 h. After the cells were washed three times with FACS buffer, the secondary antibody (PE Goat anti-mouse: 1:200) was added to the cells at 100 μl/well, and incubated at 4° C. for 40 min. Cells were washed three times with FACS buffer and analyzed by FACS Array. The binding EC50 of purified antibody was calculated with GraphPad Prism 5.
(§2) Freestyle 293 cells (200 mL at 1*10^6/mL) were transfected with 100 µg of each of the chimeric heavy and light chain expression plasmids and cultured for 6 days at 37° C. The chimeric antibody in the supernatant was then purified with Protein-A column (GE healthcare). Binding of the chimeric antibody with CD4 was measured by ELISA (FIG. 3, Table 5) and FACS (FIG. 4, Table 6), using the similar methods described above in Example 2.

[2] = target: T2, extracellular domain of hCD4 fused with human Fc tag (hCD4-hFc) (human, UniProt P01730 26-396); test: ELISA, chimeric antibody on hCD4, method similar to Example 2
T2 construct: extracellular domain; also called human CD4-hFc; hCD4 (ELISA); not shown: human Fc tag
Experimental: (§3) Example 2: Selection of the Anti-hCD4 Hybridoma Antibodies Based on Binding and Gene Reporter Assays The binding interaction between hybridoma antibody and human CD4-hFc was measured by ELISA. 96-well plates (Costar, Cat. No:9018) were coated with 100 μL of 2 μg/ml CD4-hFc (CrownBio) in PBS buffer (Hyclone, Cat. No: SH30256.01B) overnight at 4° C. The wells were aspirated and non-specific binding sites were blocked by adding 200 μL of blocking buffer containing 1% (w/v) of bovine serum albumin (BSA, Roche, Cat. No: 738328) and incubating for 1 hour at 37° C. After the plates are washed three times with PBS buffer containing 0.05% (v/v) Tween™ 20 (Sigma, Cat. No: P1379), 100 μL hybridoma supernatant or a serial concentrations of purified antibody (starting from 20 μg/mL) diluted in blocking buffer was added to each well and incubated at room temperature for 1 hour. The plates were washed and incubated with 100 μL/well of Goat anti-Mouse IgG (Thermo, Cat. No:31432) in blocking buffer for 60 min. After the plates were washed, 100 μL/well of substrate solution TMB (eBioscience, Cat. No:00-4201-56) was added, and the plates were incubated for 2 min at room temperature before 100 μL/well of 2N H_2SO_4 was added to stop the reaction. The colorimetric signals were monitored at 450 nm using a SpectraMax Plus microplate reader (Molecular Devices). For the purified antibody, data were analyzed using GraphPad Prism 5 to calculated the $EC50$.
as §2

[3] = target: T3, extracellular domain of hCD4 fused with a histidine tag (hCD4-HisTag) (human, UniProt P01730 26-396); test: Biacore T200 SPR, antibody captured on Protein A, CD4-HisTag analyte, 1:1 fit, 25 C
T3 construct: extracellular domain; also called human CD4-HisTag; not shown: histidine tag
Experimental: The binding kinetics between CD4 and CD4 antibodies were measured by Biacore™ analysis, which was performed at 25° C. on a Biacore™ T200 instrument. Protein A (GE, Cat. No:29139131-AA) was diluted with 10 mM pH 5.0 sodium acetate and immobilized onto reference and experiment flow cells of a CM5 biosensor chip to around 15000 RU using an amine coupling kit (GE, BR10050). In the beginning of each cycle, diluted test antibody (1.5 µg/mL) was injected over experiment flow cell for 1 minute to be captured. CD4-HisTag analyte series were prepared by diluting the stocks with running buffer to 100 nM followed by 2-fold serial dilution in the same buffer down to 0.78 nM. Analytes were injected in series over the reference and experiment flow cells for 3 minutes at a flow rate of 30
μL/minute. Running buffer (PBS with 0.05% P20) was allowed to flow over for 10 minutes at a flow rate of 30 μL/minute. At the end of each cycle, the biosensor surface was regenerated with 3-minute injection of 10 mM pH 2.0 Glycine-HCl buffer at a flow rate of 10 μL/minute. For each analyte sample injection (i.e., each cycle), binding responses obtained from the experimental biosensor surface were double referenced by subtracting simultaneously recorded responses from the reference surface followed by additional subtraction of responses from a single referenced running buffer sample. The association and dissociation rate constants (ka and kd) were determined simultaneously by fitting double-referenced sensorgrams of the entire titration series to Langmuir model (1:1) using Biaevaluation software. The dissociation constant, KD, was calculated from the determined rate constants by the equation KD=kd/ka.

[4] = target: T1, human CD4 on 293T cells stably …; test: FACS on 293T cells expressing human CD4, MFI; table under the graph (unit from the graph's axis); Table 6 of the text gives this value to MT412
Experimental: as §1, §2

[5] = target: T2, extracellular domain of hCD4 fused with …; test: ELISA, purified hybridoma antibody on coated CD4-hFc
Experimental: as §3

[6] = target: T1, human CD4 on 293T cells stably …; test: FACS on 293T cells expressing human CD4, MFI; table under the graph (unit from the graph's axis); Table 6 of the text gives this value to 10C2
Experimental: as §1, §2

[7] = target: T1, human CD4 on 293T cells stably …; test: FACS on 293T cells expressing human CD4, MFI; table under the graph (unit from the graph's axis); Table 6 of the text gives this value to 2B6
Experimental: as §1, §2

[8] = target: T1, human CD4 on 293T cells stably …; test: FACS on 293T cells expressing human CD4, MFI; table under the graph (unit from the graph's axis); Table 6 of the text gives this value to 11E12
Experimental: as §1, §2

[9] = target: T1, human CD4 on 293T cells stably …; test: FACS on 293T cells expressing human CD4, MFI; table under the graph (unit from the graph's axis); Table 6 of the text gives this value to 29B7
Experimental: as §1, §2

B1: Chimeric 29B7 anti-CD4 antibody (antibody, human IgG1, kappa, V domains shown)
VH: QVQLQQSGAELAKPGASVKMSCKTSADSLNTHWMHWVKQRPGQGLEWIGYINPYTGSGEYSQKFKGKATLTADISSSTAYMQLISLTSEDSAVYYCAYDSTGAMDYWGQGTSVTVSS
VL: DIKMTQSPSSMYASLGERITITCKASQDINRYLSWFQQKPGKSPKTPIYRADRSVDGVPSRFSGSGSGQDYSLTISSLEYEDMGIYYCQQYDEFPYTFGGGTKLEIKR
EC50 [1]: 0.401 µg/mL
EC50 [2]: 0.0243 µg/mL
Kd [3]: 0.0843 nM
koff [3]: 5.98e-05 s⁻¹
kon [3]: 709000 M⁻¹ s⁻¹
EC50 [4]: 0.515 µg/mL

B2: 29B7 murine hybridoma anti-CD4 antibody (antibody, V domains shown)
VH: B1 VH
VL: DIKMTQSPSSMYASLGERITITCKASQDINRYLSWFQQKPGKSPKTPIYRADRSVDGVPSRFSGSGSGQDYSLTISSLEYEDMGIYYCQQYDEFPYTFGGGTKLEIK
notes: also called hybridoma clone 29B7
EC50 [5]: 0.0334 µg/mL

B7: 10C2 murine hybridoma anti-CD4 antibody (antibody, V domains shown)
VH: EVKLQQSGTELMKPGASVKISCKATGYTFSSYWIEWIKQRPGRGLEWIGEILPGSGSTNYNEEFTGRATFTADTFSNTAYMQLSSLTSEDSAVYYCARSVSASNWYFDVWGAGTTVTVSS
VL: DIVMTQSPASLAVSLGQRATISCRASQSVSTSSYSYMHWYQQKPGQPPKFLIKYASNLESGVPARFSGSGSGTDFTLNIHPVEEEDTATYYCQHSWEIPPTFGGGTKLEIK
notes: also called hybridoma clone 10C2
EC50 [5]: 0.0368 µg/mL

B8: Chimeric 2B6 anti-CD4 antibody (antibody, human IgG1, kappa, V domains shown)
VH: EVQLQESGPSLVKPSQTLSLTCSVTGDSITSGYWNWIRKFPGHKLEFLGYISFADTTNYNPSLKSRVSITRDTSKNQFDLQLKSVTTEDTATYHCARDDYGYYAMDYWGQGISVTVSS
VL: DIHLTQTTSSLSASLGDRVTIICRASQDIDNYLNWYQLKPDGTLKLLIYYTSRLHSGVPSRFSGSGSGTEYSLTISNLEREDVATYFCQQGNTLPTFGAGTKLELKR
EC50 [1]: 0.669 µg/mL
EC50 [2]: 0.0165 µg/mL
Kd [3]: 0.373 nM
koff [3]: 0.000122 s⁻¹
kon [3]: 327000 M⁻¹ s⁻¹
EC50 [8]: 0.316 µg/mL

B9: 2B6 murine hybridoma anti-CD4 antibody (antibody, V domains shown)
VH: B8 VH
VL: DIHLTQTTSSLSASLGDRVTIICRASQDIDNYLNWYQLKPDGTLKLLIYYTSRLHSGVPSRFSGSGSGTEYSLTISNLEREDVATYFCQQGNTLPTFGAGTKLELK
notes: also called hybridoma clone 2B6
EC50 [5]: 0.0261 µg/mL

B10: 11E12 murine hybridoma anti-CD4 antibody (antibody, V domains shown)
VH: B8 VH with Q5E, G32S, V67I, H94Y, Y100F
VL: B9 VL with H3Y, L4V, D30N, S63G, R80Q
notes: also called hybridoma clone 11E12
EC50 [5]: 0.027 µg/mL

B11: Chimeric 11E12 anti-CD4 antibody (antibody, human IgG1, kappa, V domains shown)
VH: B8 VH with Q5E, G32S, V67I, H94Y, Y100F
VL: B8 VL with H3Y, L4V, D30N, S63G, R80Q
EC50 [1]: 0.316 µg/mL
EC50 [2]: 0.0168 µg/mL
Kd [3]: 6.26 nM
koff [3]: 0.00618 s⁻¹
kon [3]: 987000 M⁻¹ s⁻¹
EC50 [9]: 0.401 µg/mL

The remaining lines, values ahead:

EC50 [1]: 0.515 µg/mL
EC50 [2]: 0.0165 µg/mL
Kd [3]: 1.61 nM
koff [3]: 0.000941 s⁻¹
kon [3]: 586000 M⁻¹ s⁻¹
B3: Chimeric MT412 anti-CD4 antibody (antibody, human IgG1, kappa, V domains shown)
VH: QIQLVQSGPELKKPGETVKISCKASGYTFTDYSMHWVKQAPGKDLKWMGWINTETGEPTYADDFKGRFAFSLETSASTAYLQINNLKNEDTATYFCAREDYYGHDGFLYWGQGTLVTVSS
VL: DIVMTQSHKFMSTSVGDRVSITCKASQDVVTTVAWYQQKPGQSPKLLIYWASLRHTGVPDRFTGSGSGTDFTLTISNVQFEDLADYFCQQYSSYPYTFGGGTKLEIKR

EC50 [1]: 0.351 µg/mL
EC50 [2]: 0.0204 µg/mL
Kd [3]: 4.25 nM
koff [3]: 0.00461 s⁻¹
kon [3]: 1.09e+06 M⁻¹ s⁻¹
EC50 [6]: 0.882 µg/mL
B4: Chimeric 33E12 anti-CD4 antibody (antibody, human IgG1, kappa, V domains shown)
VH: DVQLQESGPGLVKPSQSLSLTCTVTGYSITSDYAWNWIRQFPGNKLEWMGYISYSGITSYNPSLKSRFSITRDTSKNQFFLQLNSVTTEDTATYYCARLDSSGYGAMDYWGQGTSVTVSS
VL: DIVLTQSPASLPVSLGQRATISCRASQSVSTSSYSYMHWYQQKPGQPPKLLIRYASNLESGVPARFSGSGSGTDFTLNIHPVEEEDTATYYCQHSWDFPLTFGAGTKLELKR

EC50 [1]: 0.882 µg/mL
EC50 [2]: 0.0179 µg/mL
Kd [3]: 1.19 nM
koff [3]: 0.00019 s⁻¹
kon [3]: 160000 M⁻¹ s⁻¹
EC50 [7]: 0.669 µg/mL
B5: Chimeric 10C2 anti-CD4 antibody (antibody, human IgG1, kappa, V domains shown)
VH: B7 VH
VL: B4 VL with L4M, P12A, L50F, R53K, D97E, F98I, L100P, A104G, L110I

EC50 [5]: 0.034 µg/mL
B6: 33E12 murine hybridoma anti-CD4 antibody (antibody, V domains shown)
VH: B4 VH
VL: B7 VL with M4L, A12P, F50L, K53R, E97D, I98F, P100L, G104A, I110L
notes: Mouse antibody purified from hybridoma supernatant on Protein A and detected with goat anti-mouse IgG; also called hybridoma clone 33E12
